Results from patent publication US20030215838A1.
Blank lines part the entries; values can stand above or below the molecule they belong to.

Key:
[1] = target: human zcytor17, OSMRbeta and WSX-1 co-expressed on transfected cells (human); assay: cell-based or functional assay
[2] = target: human zcytor17 and OSMRbeta co-expressed on transfected cells (human); assay: cell-based or functional assay
[3] = target: human OSMRbeta, full length, on transfected cells (human); assay: flow cytometry; no ligand (0.00 µg/mL, background) on BAF3 cells with OSMRbeta alone, SA-PE
[4] = target: human zcytor17 receptor, full length, on transfected cells (human); assay: flow cytometry; biotinylated zcytor17L at 0.000001 µg/mL on BHK cells with zcytor17 alone, SA-PE
[5] = target: human OSMRbeta, full length, on transfected cells (human); assay: flow cytometry; biotinylated zcytor17L at 0.12 µg/mL on BAF3 cells with OSMRbeta alone, SA-PE
[6] = target: human OSMRbeta, full length, on transfected cells (human); assay: flow cytometry; biotinylated zcytor17L at 2.0 µg/mL on BHK cells with OSMRbeta alone, SA-PE
[7] = target: human zcytor17 receptor, full length, on transfected cells (human); assay: flow cytometry; biotinylated zcytor17L at 1.0 ng/mL on BAF3 cells with zcytor17 alone, SA-PE
[8] = target: human zcytor17 and OSMRbeta co-expressed on transfected cells (human); assay: flow cytometry; biotinylated zcytor17L at 0.010 µg/mL on BHK cells with zcytor17 + OSMRbeta, SA-PE
[9] = target: human zcytor17 and OSMRbeta co-expressed on transfected cells (human); assay: flow cytometry; no ligand (0.0 µg/mL, background) on BHK cells with zcytor17 + OSMRbeta, SA-PE
[10] = target: human zcytor17 and OSMRbeta co-expressed on transfected cells (human); assay: flow cytometry; biotinylated zcytor17L at 0.001 µg/mL on BHK cells with zcytor17 + OSMRbeta, SA-PE
[11] = target: human zcytor17 and OSMRbeta co-expressed on transfected cells (human); assay: flow cytometry; biotinylated zcytor17L at 3.33 µg/mL on BAF3 cells with zcytor17 + OSMRbeta, SA-PE
[12] = target: human zcytor17 and OSMRbeta co-expressed on transfected cells (human); assay: flow cytometry; biotinylated zcytor17L at 0.000001 µg/mL on BHK cells with zcytor17 + OSMRbeta, SA-PE
[13] = target: human zcytor17 receptor, full length, on transfected cells (human); assay: flow cytometry; no ligand (0.0 ng/mL, background) on BAF3 cells with zcytor17 alone, SA-PE
[14] = target: human OSMRbeta, full length, on transfected cells (human); assay: flow cytometry; biotinylated zcytor17L at 0.04 µg/mL on BAF3 cells with OSMRbeta alone, SA-PE
[15] = target: human zcytor17 and OSMRbeta co-expressed on transfected cells (human); assay: flow cytometry; biotinylated zcytor17L at 0.12 µg/mL on BAF3 cells with zcytor17 + OSMRbeta, SA-PE
[16] = target: human OSMRbeta, full length, on transfected cells (human); assay: flow cytometry; biotinylated zcytor17L at 10.0 µg/mL on BAF3 cells with OSMRbeta alone, SA-PE
[17] = target: human zcytor17 and OSMRbeta co-expressed on transfected cells (human); assay: flow cytometry; biotinylated zcytor17L at 0.37 µg/mL on BAF3 cells with zcytor17 + OSMRbeta, SA-PE
[18] = target: human zcytor17 and OSMRbeta co-expressed on transfected cells (human); assay: flow cytometry; biotinylated zcytor17L at 1.11 µg/mL on BAF3 cells with zcytor17 + OSMRbeta, SA-PE
[19] = target: human zcytor17 and OSMRbeta co-expressed on transfected cells (human); assay: flow cytometry; biotinylated zcytor17L at 10.0 µg/mL on BAF3 cells with zcytor17 + OSMRbeta, SA-PE
[20] = target: human zcytor17 receptor, full length, on transfected cells (human); assay: flow cytometry; biotinylated zcytor17L at 0.010 µg/mL on BHK cells with zcytor17 alone, SA-PE
[21] = target: human zcytor17 and OSMRbeta co-expressed on transfected cells (human); assay: flow cytometry; biotinylated zcytor17L at 0.100 µg/mL on BHK cells with zcytor17 + OSMRbeta, SA-PE
[22] = target: human zcytor17 and OSMRbeta co-expressed on transfected cells (human); assay: flow cytometry; biotinylated zcytor17L at 0.04 µg/mL on BAF3 cells with zcytor17 + OSMRbeta, SA-PE
[23] = target: human zcytor17 and OSMRbeta co-expressed on transfected cells (human); assay: flow cytometry; biotinylated zcytor17L at 0.0001 µg/mL on BHK cells with zcytor17 + OSMRbeta, SA-PE
[24] = target: human zcytor17 receptor, full length, on transfected cells (human); assay: flow cytometry; biotinylated zcytor17L at 0.0001 µg/mL on BHK cells with zcytor17 alone, SA-PE
[25] = target: human zcytor17 receptor, full length, on transfected cells (human); assay: flow cytometry; biotinylated zcytor17L at 0.100 µg/mL on BHK cells with zcytor17 alone, SA-PE
[26] = target: human zcytor17 receptor, full length, on transfected cells (human); assay: flow cytometry; biotinylated zcytor17L at 2.0 µg/mL on BHK cells with zcytor17 alone, SA-PE
[27] = target: human zcytor17 receptor, full length, on transfected cells (human); assay: flow cytometry; no ligand (0.0 µg/mL, background) on BHK cells with zcytor17 alone, SA-PE
[28] = target: human OSMRbeta, full length, on transfected cells (human); assay: flow cytometry; biotinylated zcytor17L at 3.33 µg/mL on BAF3 cells with OSMRbeta alone, SA-PE
[29] = target: human OSMRbeta, full length, on transfected cells (human); assay: flow cytometry; no ligand (0.0 µg/mL, background) on BHK cells with OSMRbeta alone, SA-PE
[30] = target: human zcytor17 receptor, full length, on transfected cells (human); assay: flow cytometry; biotinylated zcytor17L at 100.0 ng/mL on BAF3 cells with zcytor17 alone, SA-PE
[31] = target: human OSMRbeta, full length, on transfected cells (human); assay: flow cytometry; biotinylated zcytor17L at 0.37 µg/mL on BAF3 cells with OSMRbeta alone, SA-PE
[32] = target: human zcytor17 receptor, full length, on transfected cells (human); assay: flow cytometry; biotinylated zcytor17L at 10.0 ng/mL on BAF3 cells with zcytor17 alone, SA-PE
[33] = target: human OSMRbeta, full length, on transfected cells (human); assay: flow cytometry; biotinylated zcytor17L at 1.11 µg/mL on BAF3 cells with OSMRbeta alone, SA-PE
[34] = target: human zcytor17 receptor, full length, on transfected cells (human); assay: flow cytometry; biotinylated zcytor17L at 0.001 µg/mL on BHK cells with zcytor17 alone, SA-PE
[35] = target: human zcytor17 and OSMRbeta co-expressed on transfected cells (human); assay: flow cytometry; no ligand (0.00 µg/mL, background) on BAF3 cells with zcytor17 + OSMRbeta, SA-PE
[36] = target: human zcytor17 and OSMRbeta co-expressed on transfected cells (human); assay: flow cytometry; biotinylated zcytor17L at 0.00001 µg/mL on BHK cells with zcytor17 + OSMRbeta, SA-PE
[37] = target: human zcytor17 and OSMRbeta co-expressed on transfected cells (human); assay: flow cytometry; biotinylated zcytor17L at 2.0 µg/mL on BHK cells with zcytor17 + OSMRbeta, SA-PE
[38] = target: human zcytor17 receptor, full length, on transfected cells (human); assay: flow cytometry; biotinylated zcytor17L at 0.00001 µg/mL on BHK cells with zcytor17 alone, SA-PE

proliferation of BaF3/zcytor17/WSX-1/OSMRbeta cells, Alamar Blue (activated CCRF-CEM and CCRF-HSB2 conditioned media) (fold over background) [1]: 10 | proliferation of BaF3/zcytor17/WSX-1/OSMRbeta cells, Alamar Blue (activated CD3+ selected human cell conditioned media) (fold over background) [1]: 15 | proliferation of BaF3/zcytor17/OSMRbeta cells, Alamar Blue (activated CCRF-CEM and CCRF-HSB2 conditioned media) (fold over background) [2]: 10 | proliferation of BaF3/zcytor17/OSMRbeta cells, Alamar Blue (activated CD3+ selected human cell conditioned media) (fold over background) [2]: 15
Molecule: human zcytor17lig (untagged, in conditioned media) (ligand)

mean fluorescent intensity (MFI) [3]: 11 | mean fluorescent intensity (MFI) [4]: 14 | mean fluorescent intensity (MFI) [5]: 5 | mean fluorescent intensity (MFI) [6]: 13 | mean fluorescent intensity (MFI) [7]: 17 | mean fluorescent intensity (MFI) [8]: 328 | mean fluorescent intensity (MFI) [9]: 13 | mean fluorescent intensity (MFI) [10]: 53 | mean fluorescent intensity (MFI) [11]: 508 | mean fluorescent intensity (MFI) [12]: 14 | mean fluorescent intensity (MFI) [13]: 7 | mean fluorescent intensity (MFI) [14]: 5 | mean fluorescent intensity (MFI) [15]: 364 | mean fluorescent intensity (MFI) [16]: 6 | mean fluorescent intensity (MFI) [17]: 441 | mean fluorescent intensity (MFI) [18]: 489 | mean fluorescent intensity (MFI) [19]: 531 | mean fluorescent intensity (MFI) [20]: 244 | mean fluorescent intensity (MFI) [21]: 2130 | mean fluorescent intensity (MFI) [22]: 247 | mean fluorescent intensity (MFI) [23]: 17 | mean fluorescent intensity (MFI) [24]: 16 | mean fluorescent intensity (MFI) [25]: 1600 | mean fluorescent intensity (MFI) [26]: 3030 | mean fluorescent intensity (MFI) [27]: 15 | mean fluorescent intensity (MFI) [28]: 5 | mean fluorescent intensity (MFI) [29]: 0 | mean fluorescent intensity (MFI) [30]: 347 | mean fluorescent intensity (MFI) [31]: 5 | mean fluorescent intensity (MFI) [32]: 72 | mean fluorescent intensity (MFI) [33]: 5 | mean fluorescent intensity (MFI) [34]: 39 | mean fluorescent intensity (MFI) [35]: 7 | mean fluorescent intensity (MFI) [36]: 15 | mean fluorescent intensity (MFI) [37]: 3780 | mean fluorescent intensity (MFI) [38]: 15
B1: biotinylated human zcytor17 ligand (ligand)
chain: LPVRLLRPSDDVQKIVEELQSLSKMLLKDVEEEKGVLVSQNYTLPCLSPDAQPPNNIHSPAIRAYLKTIRQLDNKSVIDEIIEHLDKLIFQDAPETNISVPTDTHECKRFILTISQQFSECMDLALKSLTSGAQQATT
modifications: biotin
